Values quoted from earlier work in PMC7739374.

Target: Sos (Homo sapiens) (UniProt Q07889)

Kd: 28 µM
Substance: Ras (from UniProt P01112)
